No end group written: not given here. *: point of attachment. 5FAM = O=C1OC2(c3ccc(O)cc3Oc3cc(O)ccc32)c2ccc(C(=O)*)cc21
B4: GST-JARID1A PHD3 (domain or fragment, UniProt P29375 1601-1660, looked up)
chain: EESDDENAVCAAQNCQRPCKDKVDWVQCDGGCDEWFHQVCVGVSPEMAENEDYICINCAK
B5: H3(1-14)K4me3K14fluo (peptide, UniProt P68431 2-15, looked up)
peptide: ARTKQTARKSTGGK
modifications: trimethyl-lysine at position 4; 5-carboxyfluorescein on lysine 14
B6: H3(1-14)K4unmodifiedK14fluo (peptide, UniProt P68431 2-15, looked up)
peptide: ARTKQTARKSTGGK(5FAM)

Key:
(HQ)5-HaloTag-AIRE PHD1 = target: T1, (HQ)5-HaloTag-AIRE PHD1 (UniProt O43918 293-354); assay: HaloTag plate binding assay
T1 sequence (looked up): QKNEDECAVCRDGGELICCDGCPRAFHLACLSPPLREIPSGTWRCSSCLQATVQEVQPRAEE

(HQ)5-HaloTag-BHC80 PHD = (HQ)5-HaloTag-BHC80 PHD (UniProt Q96BD5 486-543)
[1] = target: T2, (HQ)5-HaloTag-JMJD2A double tudor domain (UniProt O75164 895-1011); assay: HaloTag plate binding assay
T2 sequence (looked up): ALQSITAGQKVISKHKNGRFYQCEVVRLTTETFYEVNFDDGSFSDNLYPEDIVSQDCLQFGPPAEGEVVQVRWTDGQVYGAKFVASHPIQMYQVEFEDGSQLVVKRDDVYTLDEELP

[2] = target: T3, (HQ)5-HaloTag-JARID1A PHD3 (UniProt P29375 1601-1660); assay: pull-down
T3 sequence (looked up): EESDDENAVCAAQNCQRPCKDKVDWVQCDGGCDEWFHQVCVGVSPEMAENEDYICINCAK

[3] = target: T3, (HQ)5-HaloTag-JARID1A PHD3; assay: HaloTag plate binding assay
H3(1-14)K4me3K14fluo = target: B5; assay: fluorescence polarisation
GST-JARID1A PHD3 D1629N = target: T4, GST-JARID1A PHD3 D1629N (UniProt P29375 1601-1660, D1629N); assay: fluorescence polarisation
T4 sequence (looked up): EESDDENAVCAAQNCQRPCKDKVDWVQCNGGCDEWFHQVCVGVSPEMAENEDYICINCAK

GST-JARID1A PHD3 D1629A = target: T5, GST-JARID1A PHD3 D1629A (UniProt P29375 1601-1660, D1629A); assay: fluorescence polarisation
T5 sequence (looked up): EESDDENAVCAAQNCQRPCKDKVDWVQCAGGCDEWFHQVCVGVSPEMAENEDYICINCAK

GST-JARID1A PHD3 D1624N = target: T6, GST-JARID1A PHD3 D1624N (UniProt P29375 1601-1660, D1624N); assay: fluorescence polarisation
T6 sequence (looked up): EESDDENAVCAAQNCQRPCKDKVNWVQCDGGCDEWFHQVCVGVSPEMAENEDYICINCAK

GST-JARID1A PHD3 D1624A = target: T7, GST-JARID1A PHD3 D1624A (UniProt P29375 1601-1660, D1624A); assay: fluorescence polarisation
T7 sequence (looked up): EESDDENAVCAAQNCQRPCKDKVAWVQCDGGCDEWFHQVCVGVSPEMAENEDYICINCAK

GST-JARID1A PHD3 = target: B4; assay: fluorescence polarisation
[4] = target: B6; assay: fluorescence polarisation
H3(1-19)K9me3K19fluo = target: T8, H3(1-19)K9me3K19fluo (UniProt P68431 2-20, trimethyl-lysine at position 9; fluorescein on lysine 19 (K19fluo)); assay: fluorescence polarisation
T8 chain: ARTKQTARKSTGGKAPRKK

B1: biotinylated histone H3 (1-11) peptide, unmethylated (peptide)
peptide: ARTKQTARKSTEW
modifications: E(PEG-biotin) at position 12
- binding result ((HQ)5-HaloTag-AIRE PHD1): binds
- Kd ((HQ)5-HaloTag-BHC80 PHD): > 15 µM

B2: biotinylated histone H3 (1-11) peptide trimethylated at lysine 4 (peptide)
peptide: ARTKQTARKSTEW
modifications: Kme3 (trimethyl-lysine) at position 4; E(PEG-biotin) at position 12
- binding result [1]: binds

B3: unlabeled (no biotin) histone H3 (1-11) K4me3 peptide (peptide)
chain: ARTKQTARKSTW
modifications: Kme3 (trimethyl-lysine) at position 4
- IC50 [2]: 13.6 ± 4.5 µM
- IC50 [3]: 2.97 ± 0.35 µM

Binder: B4
- protein concentration at 90% fraction bound (H3(1-14)K4me3K14fluo): 1 µM

Binder: B5
- Kd (GST-JARID1A PHD3 D1629N): 3.81 ± 0.551 µM
- Kd (GST-JARID1A PHD3 D1629A): 4.05 ± 0.691 µM
- Kd (GST-JARID1A PHD3 D1624N): 0.634 ± 0.08 µM
- Kd (GST-JARID1A PHD3 D1624A): 1.15 ± 0.145 µM
- Kd (GST-JARID1A PHD3): 0.294 ± 0.046 µM

Binder: B6
- Kd (GST-JARID1A PHD3): 9.35 ± 1.57 µM

B7: GST-AIRE PHD1 (domain or fragment, UniProt O43918 293-354, looked up)
chain: QKNEDECAVCRDGGELICCDGCPRAFHLACLSPPLREIPSGTWRCSSCLQATVQEVQPRAEE
- protein concentration at 90% fraction bound [4]: 4 µM

B8: GST-JMJD2A DTD (domain or fragment, UniProt O75164 895-1011, looked up)
chain: ALQSITAGQKVISKHKNGRFYQCEVVRLTTETFYEVNFDDGSFSDNLYPEDIVSQDCLQFGPPAEGEVVQVRWTDGQVYGAKFVASHPIQMYQVEFEDGSQLVVKRDDVYTLDEELP
- protein concentration at 90% fraction bound (H3(1-14)K4me3K14fluo): 4 µM

B9: GST-UHRF1 TTD (domain or fragment)
chain: MWDETELGLYKVNEYVDARDTNMGAWFEAQVVRVTRKAPSRDEPCSSTSRPALEEDVIYHVKYDDYPENGVVQMNSRDVRARARTIIKWQDLEVGQVVMLNYNPDNPKERGFWYDAEISRKRETRTARELYANVVLGDDSLNDCRIIFVDEVFKIERPGE
- protein concentration at 90% fraction bound (H3(1-19)K9me3K19fluo): 18 µM

B10: GST-RAG2 PHD (domain or fragment, UniProt P21784 414-487, looked up)
chain: GYWITCCPTCDVDINTWVPFYSTELNKPAMIYCSHGDGHWVHAQCMDLEERTLIHLSEGSNKYYCNEHVQIARA
- protein concentration at 90% fraction bound (H3(1-14)K4me3K14fluo): 25 µM

B11: GST-BHC80 PHD (domain or fragment, UniProt Q96BD5 486-543, looked up)
chain: IHEDFCSVCRKSGQLLMCDTCSRVYHLDCLDPPLKTIPKGMWICPRCQDQMLKKEEAI
- protein concentration at 90% fraction bound [4]: 60 µM

From paper PMC3567257 (Biochemistry, 2012)
